{
  "source": "the nanobody polyreactivity screen of Harvey et al. (2022)",
  "data": [
    {"test": "yeast display, Sf9 membrane polyspecificity reagent, FACS + sequencing; frameworks hold sequencing errors", "method_in_brief": "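Nanobodies came from a synthetic yeast display library in Saccharomyces cerevisiae BJ5465, induced with galactose for 36–48 hours and stained for 1 hour at 4 °C with 10% biotinylated, detergent-solubilized Sf9 membrane reagent. Cells were enriched on streptavidin microbeads and then FACS-sorted, with low and high (top ~1%) gates set on anti-HA fluorescence for expression and streptavidin fluorescence for reagent binding. Each polyreactivity label reflects the gate a clone came from. Genes were amplified by colony PCR, sequenced by MiSeq 2 × 250 and filtered by CDR length.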", "values": [
      {"sequence": "QVQLVESGGGLVQAGGSLRLSCAASGYTFYVYTMGWYRQAPGKERELVAAISGSGTSTYYADSVKGRFTISRDNAKNTVYFQMNSLKPVDTAVYYCAAEDYSRDVYSYDYWGQGTQVTVSS", "polyreactivity (PSR sort gate)": "low polyreactivity"},
      {"sequence": "QVQLVESGGGLVQAGGSLRLSCAASGSIFSYYVMGWYRQAPGKERELVAVITDRGGRTYYADSVKGRFTISRDNAKNTVYLQMNSLKPEDTAVYYCAADDTPYNSKRFDYWGQGTQVTVSS", "polyreactivity (PSR sort gate)": "high polyreactivity"},
      {"sequence": "QVQLVESGGGLVQAGGSLRLSCAASGSIFFSYAMGWYRQAPGKERELVASISSGVSTNYADSEKGRFTISRDNAKNTVYLQMNSLKPEDTAVYYFAAYYRGWSSSYWYPAYNYWGQGTQVTVSS", "polyreactivity (PSR sort gate)": "low polyreactivity"},
      {"sequence": "QVQLVESGGGLVQAGGSLRLSCAASGLTFQYKTMGRYRQAPGKEREFVAAITISGGTTYYADSVKGRFTISRDNAKTTVYLQMNSLKPEDTAVHYCAADFNSTERGTNMDYWGQGTQVTVSS", "polyreactivity (PSR sort gate)": "low polyreactivity"},
      {"sequence": "QVQHVESGGGLVQAGGSHPLSCAASGRIFQYNALGWYRKATGKERELLAAISLSGVRTYYADSVKGRFTISRDNAKNTVYLQMNSLKPEDTAVYYCAAVRFDRARGSPYPDRVGVYSWGQGTQVTVSS", "polyreactivity (PSR sort gate)": "high polyreactivity"},
      {"sequence": "QVQLVESGGGLVQAGGSLRLSCAASGFTLYVNAKGWYRQAPGKERELVAAISWSGGSTYYADSVKGRFTISRDNAKNTVYLQMNSLKPEDTAVYYCNAKYHRRLQWGTRYYYWGQGTQVTVSS", "polyreactivity (PSR sort gate)": "high polyreactivity"},
      {"sequence": "QVQLVESGGGLVQAGGSLRLSCAASGSTFKTYAMGWYRQAPGKERELVAAITSSGGRTYYADSVKGRFTISRDNAKNTVYLQMNSLKPEDTAVYYCAAGRRSYNQLDYWGQGTQVTVSS", "polyreactivity (PSR sort gate)": "high polyreactivity"},
      {"sequence": "QAQLVESGGGLVQAGGSLRLSCAASGFTFSFNAMGWYRQAPGKERELVAAISSTGSSTYYADSVKGRFTISRDNAKNTVYLQMNSLKPEDTAVYYCAASRRGYRPRRYDYWGQGTQVTVSS", "polyreactivity (PSR sort gate)": "high polyreactivity"},
      {"sequence": "QDQLVESGGGLVQAGVSLRLSCAASGLTFPQYVMGWYRQAPGKQRELDASISSSGGNTYYADSVKGRFTISRDNAKNTVYLQMISLKPEDTAVYYCAAEYIFHYYDIFDYWGQGTQVTVSS", "polyreactivity (PSR sort gate)": "high polyreactivity"},
      {"sequence": "QVQLVESGAGLVQAGGSLRLSCAASGITFYTYAMGWYRQAPGKERELVAAITSRTGSTYYADSVKGRFTISRDNAKNTVYLQMNSLKPEDTAVYYCAADRTRGRDGSDYWGQGTQVTVSS", "polyreactivity (PSR sort gate)": "low polyreactivity"},
      {"sequence": "QVQIVESCGGLVQAGGSLRLICAATGSIFLRNTMGWYRQAPAKQRELVASIDWSGGITYYADSVKGRFTISRDNAKNTVYLQMNSLKQEDTAVYFCNAVFLYPFNVPTMEYWGQGTQVTVSS", "polyreactivity (PSR sort gate)": "low polyreactivity"},
      {"sequence": "QVQLVESGGGLVQAGGSLRLSCAASGYTFRYNALGWYRQAPGKERELVAAISYSRGSTYYADSVKGRFTISRDYAKYTVYLLMNSLKPEDTAVYYCAAQYLFSGHDYWGQGTQVTVSS", "polyreactivity (PSR sort gate)": "low polyreactivity"},
      {"sequence": "QVQLLESGGGLVQAGGSLRLSCAASGRIFVSNAMGWYRQAPGKERELVAAISKSGGRTYYADSVKGRFTISRDNAKNTVYLQMNSLKPEDTAVYYCAADIFTQGFDYWGQGTQVTVSS", "polyreactivity (PSR sort gate)": "high polyreactivity"},
      {"sequence": "QVQLVESGGGLVQAGGSLRLSSAASGFTFWYYAMGWYRQAPGKERELVAAITWNGGSTYYADSVKGRFTISRDNAKNTVYLQMNSLKPEDTAVYYCNAYSPFYPVPSEYDYWGQGTQVTVSS", "polyreactivity (PSR sort gate)": "high polyreactivity"},
      {"sequence": "QVQLVDSGGGLVQAGGSLRLSCAASGRTISGYAMGWYRQAPGKERELVAAITSRGGRTYYADSVKGRFTISRDNAKNTVYLQMNSLKPEDTAVYYCAAYRRLTLYDYWGQGTQVTVSS", "polyreactivity (PSR sort gate)": "high polyreactivity"},
      {"sequence": "QVQLVESGGGLVQAGGSLRLSCAASGFIFYRYAMGWYRQAPGKERELVSAISYRGGSTYYADSVKGRFTISRDNAKNTVYLQMNSLKPEDTAVYYCAASLRYYGLEMDYWGQGTQVTVSS", "polyreactivity (PSR sort gate)": "high polyreactivity"},
      {"sequence": "QVQLVESWGGLVQAGGSLRLSCAASGSTIDTNTMGWYRQAPGKEREWVAAITWSDASTYADSVKGRFTISRDNAKNTVYFQMNSLKPEDTAVYYCNADWTITVGYDYWGQGTKVTVSS", "polyreactivity (PSR sort gate)": "low polyreactivity"},
      {"sequence": "QVQLVESGGGLVQAGGSLRLSCAASGIIFYIYTMGWYRQAPGKERELVAAINRSGFRTYYADSVKGRFTISRDNAKNTVYLQMNSLKPEDTAVYYCAAGTGSRDYYWGQGTQVTVSS", "polyreactivity (PSR sort gate)": "high polyreactivity"},
      {"sequence": "QVQLVESGVGLVQAGGSLRLSCAASGSTFWLYAMGWYRQAPGKERELVASISSRGGSTYYADSVKGRFTISRDNAKNTVYLQMNSLKPEDTAVYYCAAKDIRYDDDYWGQGTQVTVSS", "polyreactivity (PSR sort gate)": "low polyreactivity"},
      {"sequence": "QVQLVESGGGLVQAGGSLRLSCAASGRIFVVYAMGWYRQAPGKERELVAAITYGGGSTHYADSVKGRFTISRDNAKNTVYLQINSLIPEDTAVYYCAADLFYHSYGYEYWGQGTQVTVSS", "polyreactivity (PSR sort gate)": "low polyreactivity"},
      {"sequence": "QVQLVESGGGLVQAGGSLRLSCAASGFTFYWTAMGWYRQAPGKERELVAAINGGDSTNYADSVKGRFTISRDNAKNTVYLQMNSLKPEDTAVYYCAKYYYTSIVGYDSWGQGTQVTVSS", "polyreactivity (PSR sort gate)": "low polyreactivity"},
      {"sequence": "QVQLVESGGGLVQAGGSLRLSCAASGFTIVPYAMGWYRQAPGKERELVAAITSGGSTYYADSVKGRFTISRDNAKNTVYLQMNSLKPEDTAVYYCNRGRYRRRYTYSQYDYWGQGTQVTVSS", "polyreactivity (PSR sort gate)": "high polyreactivity"},
      {"sequence": "QVQLVESGGGLVQAGGSLRLICAASGSNFWSYAMGWYRQAPGKERELVADITWSGGNTYADSVKGRFTISRDNAMNTVYLQMNSLKPEDTAVYYCAADPAHGTKWYVYPSHDDYWGQGTQVTVSS", "polyreactivity (PSR sort gate)": "low polyreactivity"},
      {"sequence": "QVQLVESGGGLVQAGGSLRLSCAASGLTFKWYAMGWYRPAPGKERELVAAISRDGSTYYADSVKGRFTISRDNAKNTVYLQMNSLKPEDTAVYNCAADIWPSSLLADEYDYWGQGTQVTVSS", "polyreactivity (PSR sort gate)": "high polyreactivity"},
      {"sequence": "QVQLVESGGGLVQAGGSLRLSCAASGRTFSINAMGWYRQAPGKEREMVADITKRGSTYYADSVKGRFTISRDNAKNTVYLQMNSLKREDTAVYYCNARYRGRVYDRFGYWGQGTQVTVSS", "polyreactivity (PSR sort gate)": "high polyreactivity"},
      {"sequence": "QVQLVESGGGLVQAGGSLRLSCASSGRTFYQNAMGWYRQAPGKESEFVAAITGGTGSTHYADSVKGRFTISRDNAKNTVYLQMNSLKPEDTAVYYCATRYLFGFSRYDYWGQGTQVTVSS", "polyreactivity (PSR sort gate)": "low polyreactivity"},
      {"sequence": "QVQLEESGGGLVQAGGSLRLSCAASGFTFFQYAMGWYRQAPGKERELVAAITSGVSTNYADSVKGRFTISRDNAKNTVYVQMNSLKPEDTAVYYCAADPRSLQSWRGEFAGEYWGQGTQVTVSS", "polyreactivity (PSR sort gate)": "low polyreactivity"},
      {"sequence": "QVQLVESGGGLVQAGGSLRLSCAASGRIFTKYAMGWYRQAPGKERELVAAISRGGSNTYYADSVKGRFTISRDIAKNTVYLQMNSLKPEDTAVYYCNKPYSYVGWPGTGPDPKTVYYWGQGTQVTVSS", "polyreactivity (PSR sort gate)": "high polyreactivity"},
      {"sequence": "QVQLVESGGGLVQAGGSLRLSCAASGSTFSDYTMGWYRQAPGKERELVAAITTIGGSTYYADSVKGRFTISRDNAKNTVYLQMNSLKPEDTAVYYCAAYYYYPFEYYYWGQGTQVTVSS", "polyreactivity (PSR sort gate)": "low polyreactivity"},
      {"sequence": "QVQLVESGGGLVQAGGSLRLSCAASGLIFFFYAMGWYRQAPGKERELVASISGGGITYYADSVKGRFTISRDNAKNTVYLQMNSLKPEDTAVIKNDYWGQGTQVTVSS", "polyreactivity (PSR sort gate)": "low polyreactivity"},
      {"sequence": "QVQLVESGGGLVQAGGSLRLSCAASGRTFWKYVMGWYRQAPGKERELVAVISRPAGSTYYADSVKGRFTISRDNAKNSVYLQMNSLKPEDTAVYYCAKRPKNKPVLGDYDHWGQGTQVTVSS", "polyreactivity (PSR sort gate)": "low polyreactivity"},
      {"sequence": "QVQLVESGGGLVQAGGSLRLSCAASGIISGRTGMGWYRQATGKERELVASISDSGSSTYYADSVKGRFTISRDNAKNTVYLQMNSLKPEDTAVYYCATDLLASRYGYWGQGTQVTVSS", "polyreactivity (PSR sort gate)": "low polyreactivity"},
      {"sequence": "QVQLVESGGGLVQAGGSLRLSCAASGRTFYYNVMGWYRQAPGKERELVAAISTGVSTNYADSVKGRFTISRDNAKNTVYLQMNSLKPEDTAVYYCNARSYRWYRPVYRYDYWGQGTQVTVSS", "polyreactivity (PSR sort gate)": "high polyreactivity"},
      {"sequence": "QVQLVESGGGLVQAGGSLRLSCAASGRTFLINAMGWYRQAPGKERELVAGINRNGGTTYYADSVKGRFTISRDNAKNTVYLQMNSLKPEDTAVYYCAKRYPSWFNYWGQGTQVTVSS", "polyreactivity (PSR sort gate)": "high polyreactivity"},
      {"sequence": "QVQLVESGGGLVQAGGSLRLSCAASGNIFDGYAMGWYRQAPGKEREMVAAITSSAGSTYYADSVKGRFTISRDNAKNTVYLQMNSLKPEDTAVYYCNKVTKYRPIEGSWGQGTQVTVSS", "polyreactivity (PSR sort gate)": "high polyreactivity"},
      {"sequence": "QVHLVESGGGLVQAGGSLRLSCAASGSIFRNNAMGWYRQAPGKARELVAVISRSGGSTYYADSVKGRFTISRDNAKNTVYLDMNSLKPEDTAVYYCDVGYWGRLGFRGYGYWGQGTQVTVSS", "polyreactivity (PSR sort gate)": "low polyreactivity"},
      {"sequence": "QVQLVESGGGLVQAGGSLRLSCAASGITFYGNAMGWYRQAPGKERELVAGISSGGSTSYADSVKGRFTISRDNAKNTVYLQMDSLKPEDTAVYYCAKRWYYGTRYGTSYIRDYWGQGTQVTVSS", "polyreactivity (PSR sort gate)": "high polyreactivity"},
      {"sequence": "QVQLVESGGGLVQAGGSLRLSCASSGSIININVMGWYRQAPGKERELVAAINSGTSTYYADSVKGRFTFSRDNAKITVYLKMNSLKPEDTAVYYCAARNLFTGRRLFYFWGQGTQVTVSS", "polyreactivity (PSR sort gate)": "low polyreactivity"},
      {"sequence": "QVQLVESGGGLVQAGGSLRLSCAASGSTFVYNDMGWYRQAPGKERELVAVITSGGNTYYADSVKGRFTISRDNAKNTVYLQMNSLKPEDTAVYYCATRWYRFYPSDYWGQGTQVTVSS", "polyreactivity (PSR sort gate)": "low polyreactivity"},
      {"sequence": "QVQLVESGGGLVQAGGSLRLSCAASGIIFDLNAMGWYRQAPGKERELVAAITSGGSTYYADSVKGRFTISRDNAKNTVYLQMNSLKPEDTAVYYCAADYQAGDKLYDYWGQGTQVTLSS", "polyreactivity (PSR sort gate)": "low polyreactivity"},
      {"sequence": "QVQLVEAGGGLVQAGGSLRLSCAASGSIFFIYAMGWYRQAPGKERELVAAITSGDRTYYADSVKGRFTISRDNAKNTVYLQMNSLKPEDTAVYYCNADYYISYWGQGTQVTVSS", "polyreactivity (PSR sort gate)": "low polyreactivity"}
    ]}
  ]
}
